The results in this text go back to the supplement of paper PMC9732359.

This series can be described thus: protein stability index of a GFP-peptide fusion (yeast GPS) (PSI 1-4); higher = more stable; sorted into four equal gates, so the index is relative within each strain. The essentials:
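Peptides tiling yeast proteins in 17-residue segments were fused downstream of GFP, with Cherry expressed from the same plasmid. As a pooled library in yeast, mid-log cultures grown in leucine-free medium were sorted into four equal gates by GFP/Cherry fluorescence ratio. Gate plasmids were PCR-amplified and Illumina-sequenced, and barcodes linked reads to strains. Each peptide received a protein stability index equal to the sum of each gate's read frequency times its gate number.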

± gives the uncertainty stated by the source.

In turn, LNSLTNLLSKRNQEKKM [SNM1] gave a protein stability index (doa10∆) of 2.89 ± 0.078, a protein stability index (pdr5∆) of 2.86 ± 0.074, a protein stability index (san1∆) of 2.69 ± 0.083 and a protein stability index (ubr1∆) of 2.7 ± 0.063.

In the case of LNTKSIQIDEETENSES [MCD1], the protein stability index by setting is: (doa10∆) 2.16 ± 0.096; (pdr5∆) 2.52 ± 0.11; (san1∆) 2.87 ± 0.1; (ubr1∆) 2.92 ± 0.1.

As for LNYTVINFKSREAIRPG [AAR2], the protein stability index runs as follows: (doa10∆) 3.07 ± 0.069; (pdr5∆) 3.09 ± 0.068; (san1∆) 3.15 ± 0.058; (ubr1∆) 3.17 ± 0.042.

As to LPDELTLSYDDISAAIV [DLS1], the protein stability index reads like this: (doa10∆) 2.56 ± 0.055; (pdr5∆) 2.53 ± 0.061; (san1∆) 2.58 ± 0.073; (ubr1∆) 2.67 ± 0.05.

The sequence LPEKVNFRTMQQQQMQQ [SSN2] yielded a protein stability index (doa10∆) of 2.3 ± 0.18, a protein stability index (pdr5∆) of 2.75 ± 0.18, a protein stability index (san1∆) of 2.46 ± 0.19 and a protein stability index (ubr1∆) of 2.38 ± 0.14.

For the sequence LPFQRLVREIAQDFKTD [HHT1], the protein stability index (doa10∆) worked out at 1.93 ± 0.066, the protein stability index (pdr5∆) turned out to be 2.48 ± 0.061, the protein stability index (san1∆) is 2.48 ± 0.073 and the protein stability index (ubr1∆) came to 2.35 ± 0.074.

In the case of LPKAWISLAVEGEPVNS [COR1], the protein stability index is, setting by setting: (doa10∆) 1.38 ± 0.12; (pdr5∆) 2.1 ± 0.14; (san1∆) 2.84 ± 0.14; (ubr1∆) 1.79 ± 0.1.

Sequence LPKLKATGHRVLIFFQM [SNF2] displayed a protein stability index (doa10∆) of 1.69 ± 0.13, a protein stability index (pdr5∆) of 1.52 ± 0.083, a protein stability index (san1∆) of 2.09 ± 0.12 and a protein stability index (ubr1∆) of 2.09 ± 0.14.

In the case of LPLRLQFNEFIQIMANI [PGD1], the protein stability index was 1.52 ± 0.078 (doa10∆), 1.51 ± 0.088 (pdr5∆), 1.28 ± 0.14 (san1∆) and 1.17 ± 0.084 (ubr1∆).

As for LPNEAGRLEIFKIHTAK [RPT4], the protein stability index (doa10∆) amounted to 2.6 ± 0.16, the protein stability index (pdr5∆) is 3.07 ± 0.16, the protein stability index (san1∆) came out at 2.92 ± 0.19 and the protein stability index (ubr1∆) worked out at 2.66 ± 0.11.

In the case of LPNLGTPDDDEIDVENH [RPN8], the protein stability index runs as follows: (doa10∆) 1.53 ± 0.076; (pdr5∆) 1.82 ± 0.083; (san1∆) 1.69 ± 0.11; (ubr1∆) 1.42 ± 0.056.

With LPPNWKYESATASALVN [RPS13], the protein stability index (doa10∆) stood at 2.21 ± 0.081, the protein stability index (pdr5∆) was 2.59 ± 0.095, the protein stability index (san1∆) was 2.69 ± 0.064 and the protein stability index (ubr1∆) was 2.12 ± 0.049.

Turning to LPPPEDVAFLKTAYSIY [RPN1], the protein stability index runs as follows: (doa10∆) 2.4 ± 0.06; (pdr5∆) 2.36 ± 0.052; (san1∆) 2.46 ± 0.069; (ubr1∆) 2.47 ± 0.053.

As for LPSEERIQKIISKRKEE [YIL149C/MLP2], the protein stability index (doa10∆) is 1.74 ± 0.08, the protein stability index (pdr5∆) was 1.66 ± 0.074, the protein stability index (san1∆) stood at 1.41 ± 0.16 and the protein stability index (ubr1∆) was 1.65 ± 0.055.

Regarding LPSSNGSSRIIASDGSE [RRP42], the protein stability index was determined as 3.08 ± 0.091 (doa10∆), 2.86 ± 0.11 (pdr5∆), 3.17 ± 0.11 (san1∆) and 2.74 ± 0.085 (ubr1∆).

Regarding LQDEVMNIKPVQKQTRA [RPS2], the protein stability index by setting is: (doa10∆) 2.91 ± 0.2; (pdr5∆) 3.12 ± 0.18; (san1∆) 2.42 ± 0.14; (ubr1∆) 3.63 ± 0.19.

Regarding LQEKFLNQIATLKIHLK [IRR1], the protein stability index is, setting by setting: (doa10∆) 1.22 ± 0.12; (pdr5∆) 1.4 ± 0.11; (ubr1∆) 1.03 ± 0.093.

LQKEKELHKEGTISKLE [SMC2] yielded a protein stability index (doa10∆) of 2.89 ± 0.075, a protein stability index (pdr5∆) of 3.08 ± 0.08, a protein stability index (san1∆) of 1.83 ± 0.06 and a protein stability index (ubr1∆) of 2.5 ± 0.05.

For LQLIIFLRTQFLKLYVL [RGR1], the protein stability index turned out to be 1.25 ± 0.1 (doa10∆), 1.4 ± 0.11 (pdr5∆), 1.53 ± 0.12 (san1∆) and 1.41 ± 0.091 (ubr1∆).

With LQNCCIIDVGTHHTDII [ARP9], the protein stability index was found to be 1.43 ± 0.11 (doa10∆), 1.9 ± 0.07 (pdr5∆), 1.51 ± 0.15 (san1∆) and 2.28 ± 0.066 (ubr1∆).

LQPIFKGEEAKLDSKKT [SSN3]: the protein stability index reads like this: (doa10∆) 3.52 ± 0.2; (pdr5∆) 3.11 ± 0.23; (san1∆) 3.54 ± 0.17.

Consider LQQAKLRESEISQKLTN [SMC3], for which the protein stability index reads like this: (doa10∆) 3.18 ± 0.076; (pdr5∆) 3.17 ± 0.073; (san1∆) 3.15 ± 0.087; (ubr1∆) 2.97 ± 0.069.

Regarding LQQGMRGAWGKPHGLAA [RPL10], the protein stability index by setting is: (doa10∆) 2.47 ± 0.1; (pdr5∆) 2.57 ± 0.097; (san1∆) 2.24 ± 0.23; (ubr1∆) 2.52 ± 0.069.

In turn, LQSISSLTISLYASDYA [RPN7] returned a protein stability index (doa10∆) of 1.71 ± 0.031, a protein stability index (pdr5∆) of 1.84 ± 0.03, a protein stability index (san1∆) of 1.83 ± 0.039 and a protein stability index (ubr1∆) of 1.95 ± 0.027.

Sequence LQSIVNEISRNGTMINE [PCI8] displayed a protein stability index (doa10∆) of 2.93 ± 0.12, a protein stability index (pdr5∆) of 2.64 ± 0.13, a protein stability index (san1∆) of 2.67 ± 0.13 and a protein stability index (ubr1∆) of 2.9 ± 0.12.

LQVADKFFRVKYENKIS [SMC3]: the protein stability index amounted to 2.14 ± 0.073 (doa10∆), 2.3 ± 0.05 (pdr5∆), 1.67 ± 0.092 (san1∆) and 1.52 ± 0.03 (ubr1∆).
